Data set [1] deals with T1, wild-type (WT) human CAV1α with a C-terminal 6X-Histidine tag (human), Q03135.
T1 chain: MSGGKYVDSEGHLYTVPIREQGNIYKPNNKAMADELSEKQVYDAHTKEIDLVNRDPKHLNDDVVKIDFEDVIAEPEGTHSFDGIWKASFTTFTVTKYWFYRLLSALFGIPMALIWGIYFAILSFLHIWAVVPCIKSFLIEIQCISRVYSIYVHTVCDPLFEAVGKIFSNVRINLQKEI
Description: negative stain electron microscopy. As to conditions: remark: other sources report otherwise.

Data set [2] concerns the molecule itself. Description: negative stain electron microscopy.

The stoichiometry N is a count of units in the complex or per binding partner.

B1: wild-type (WT) human CAV1α with a C-terminal 6X-Histidine tag, Q03135 1-178 (natural protein)
chain: MSGGKYVDSEGHLYTVPIREQGNIYKPNNKAMADELSEKQVYDAHTKEIDLVNRDPKHLNDDVVKIDFEDVIAEPEGTHSFDGIWKASFTTFTVTKYWFYRLLSALFGIPMALIWGIYFAILSFLHIWAVVPCIKSFLIEIQCISRVYSIYVHTVCDPLFEAVGKIFSNVRINLQKEI
For B1, the stoichiometry N in data set [1] was found to be 10.

B2: CAV1β with a 6X His-tag at the C terminus (natural protein, human, UniProt Q03135 32-178, looked up)
chain: MADELSEKQVYDAHTKEIDLVNRDPKHLNDDVVKIDFEDVIAEPEGTHSFDGIWKASFTTFTVTKYWFYRLLSALFGIPMALIWGIYFAILSFLHIWAVVPCIKSFLIEIQCISRVYSIYVHTVCDPLFEAVGKIFSNVRINLQKEI
As for B2, the binding result in data set [2] is “binds”.

B3: CAV1β-Venus (natural protein, human, UniProt Q03135 32-178, looked up)
chain: MADELSEKQVYDAHTKEIDLVNRDPKHLNDDVVKIDFEDVIAEPEGTHSFDGIWKASFTTFTVTKYWFYRLLSALFGIPMALIWGIYFAILSFLHIWAVVPCIKSFLIEIQCISRVYSIYVHTVCDPLFEAVGKIFSNVRINLQKEI
Take B3: in data set [2], the binding result is “binds”.

The record behind these values is paper PMC7821874 (Science Advances, 2020).
